The values below come from patent US20190282704A1.

The target of experiment [1] is wildtype feline IL-31 (Feline_IL31_wildtype) (feline).
Experiment [2] has as its target canine IL-31 (Canine_IL31) (canine). Put plainly: SPR (Biacore), immobilised IL-31, 1:1 fit. (SPR reads the build-up and loss of mass on a sensor chip optically.)
Experiment [3] deals with wildtype feline IL-31 (Feline_IL31_wildtype) (feline). Put plainly: SPR (Biacore), immobilised IL-31, 1:1 fit.
The target is the same in experiment [4]. The experiment in a line: indirect ELISA, coated IL-31.
Experiment [5] concerns the target feline IL-31 15H05 mutant (Feline_IL31_15H05 mutant) (feline). The experiment in a line: indirect ELISA, coated IL-31. In general terms: An ELISA detects its analyte on a solid surface through an enzyme-linked reagent.

A word on the Kd: it is the free concentration of one partner at which half of the binding sites on the other are occupied at equilibrium, for simple one-to-one binding. Low readings indicate higher affinity, high ones lower affinity. A word on the koff: it is the rate constant with which the complex falls apart. The kon is the rate constant with which the complex forms. Lower therefore signals slow association.

Sequence of canine IL-31 (Canine_IL31) (canine) (chain, as listed by the source limits assumed, form in doubt): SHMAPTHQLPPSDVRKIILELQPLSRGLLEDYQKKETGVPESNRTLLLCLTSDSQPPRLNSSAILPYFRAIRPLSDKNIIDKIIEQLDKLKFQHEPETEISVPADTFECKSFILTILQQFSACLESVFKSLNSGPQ
Sequence of feline IL-31 15H05 mutant (Feline_IL31_15H05 mutant) (feline) (chain, as listed by the source mutant limits assumed, form in doubt): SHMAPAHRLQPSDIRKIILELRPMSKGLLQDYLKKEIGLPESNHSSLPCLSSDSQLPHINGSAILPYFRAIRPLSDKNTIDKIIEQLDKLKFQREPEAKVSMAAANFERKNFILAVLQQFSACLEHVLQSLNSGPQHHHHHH
Sequence of wildtype feline IL-31 (Feline_IL31_wildtype) (feline) (chain, as listed by the source limits assumed, form in doubt): as the sequence (chain, as listed by the source mutant limits assumed, form in doubt) above, with A103P, A105D counted along it

B1: Feline 11E12 1.1 FW2 (antibody, V domains shown)
VH: QVLLVQSGAEVKKPGASVKIFCKASGYSFTYYDINWLRQAPEQGLEWMGWIFPGDGGTKYNETFKGRLTLTADTSTNTVYMELSSLRSADTAMYYCARGGTSVIRDAMDYWGQGALVTVSS
VL: EIQMTQSPSSLSASPGDRVTITCRASESVDNYGISFMHWYQQKPGQPPKLLIYRASNLESGVPSRFSGSGSGTDFTLTISSLEPEDAATYYCQQSNKDPLTFGQGT
In experiment [1], B1 displayed an IC50, inhibition of feline IL-31-induced STAT3 phosphorylation, canine DH82 cells of 5.66 µg/mL and an IC50, inhibition of feline IL-31-induced STAT3 phosphorylation, feline FCWF4 cells of 4.38 µg/mL. In experiment [2], this molecule yielded a dissociation constant Kd of 7.02 nM, a koff of 0.000318 s⁻¹ and an association rate constant (kon) of 45200 M⁻¹ s⁻¹. Moreover, in experiment [3], the dissociation constant Kd came out at 0.75 nM, the dissociation rate constant (koff) was found to be 0.000639 s⁻¹ and the association rate constant (kon) turned out to be 852000 M⁻¹ s⁻¹.

B2: ZIL69 (antibody, V domains shown)
VH: EVQLVESGGDLVKPAGSLRLSCVASGFTFSSYAMKWVRQAPGKGLQWVATINNDGTRTGYADAVRGRFTISKDNAKNTLYLQMDSLRADDTAVYYCTKGNAESGCTGDHCPPYWGQGTLVTVSS
VL: SSVLTQPPSVSVSLGQTATISCSGESLNKYYAQWFQQKAGQAPVLVIYKDTERPSGIPDRFSGSSAGNTHTLTISGARAEDEADYYCESAVSSETNVFGSGTQLTVLR
Consider B2, for which the Binding (ELISA OD) in experiment [4] was found to be 1.48 OD; in experiment [5], 0.92 OD.

B3: ZIL94 (antibody, V domains shown)
VH: EVQLVDSGGDLVKPGGSLRLSCVASGFTFSTYFMSWVRQAPGRGLQWVALISSDGSGTYYADAVKGRFTISRDNAKNTLYLQMNSLRAEDTAMYYCAIFWRAFNDWGQGTLVTVSS
VL: QTVVIQEPSLSVSPGGTVTLTCGLNSGSVSTSNYPGWYQQTRGRTPRTIIYDTGSRPSGVPNRFSGSISGNKAALTITGAQPEDEADYYCSLYTDSDILVFGGGTHLTVLR
With B3, the Binding (ELISA OD) in experiment [4] came out at 1.67 OD; in experiment [5], 1.3 OD.

B4: ZIL1 (antibody, V domains shown)
VH: EVQLVESGGDLVKPGGSLRLSCVASGFTFSSYGMSWVRQAPGKGLQWVAHINSGGSSTYYADAVKGRFTISRDNAKNTLYLQMNSLRAEDTAVYYCVEVYTTLAAFWTDNFDYWGQGTLVTVSS
VL: QSVLTQPTSVSGSLGQRVTISCSGSTNNIGILAATWYQQLPGKAPKVLVYSDGNRPSGVPDRFSGSKSGNSATLTITGLQAEDEADYYCQSFDTTLDAYVFGSGTQLTVLR
As for B4, the results for the Binding (ELISA OD) in experiment [4] and in experiment [5] were 1.89 OD and 0.92 OD, respectively.

B5: mouse: feline 11E12 chimera (antibody)
heavy: QVQLQQSGAELVKPGASVKLSCKASGYTFKYYDINWVRQRPEQGLEWIGWIFPGDGGTKYNETFKGKATLTTDKSSSTAYMQLSRLTSEDSAVYFCARGGTSVIRDAMDYWGQGTSVTVSSASTTAPSVFPLAPSCGTTSGATVALACLVLGYFPEPVTVSWNSGALTSGVHTFPAVLQASGLYSLSSMVTVPSSRWLSDTFTCNVAHPPSNTKVDKTVRKTDHPPGPKPCDCPKCPPPEAAGAPSIFIFPPKPKDTLSISRTPEVTCLVVDLGPDDSDVQITWFVDNTQVYTAKTSPREEQFNSTYRVVSVLPILHQDWLKGKEFKCKVNSKSLPSPIERTISKAKGQPHEPQVYVLPPAQEELSRNKVSVTCLIKSFHPPDIAVEWEITGQPEPENNYRTTPPQLDSDGTYFVYSKLSVDRSHWQRGNTYTCSVSHEALHSHHTQKSLTQSPGK
light: DIVLTQSPASLAVSLGQRATISCRASESVDNYGISFMHWYQQKPGQPPKLLIYRASNLESGIPARFSGSGSRTDFTLTINPVETDDVATYYCQQSNKDPLTFGAGTKLELKRSDAQPSVFLFQPSLDELHTGSASIVCILNDFYPKEVNVKWKVDGVVQNKGIQESTTEQNSKDSTYSLSSTLTMSSTEYQSHEKFSCEVTHKSLASTLVKSFQRSECQRE
In experiment [1], B5 returned an IC50, inhibition of feline IL-31-induced STAT3 phosphorylation, canine DH82 cells of 4.4 µg/mL and an IC50, inhibition of feline IL-31-induced STAT3 phosphorylation, feline FCWF4 cells of 3.45 µg/mL. In experiment [2], the Kd came to 0.000127 nM, the koff stood at 8.7e-08 s⁻¹ and the kon is 684000 M⁻¹ s⁻¹. Moreover, in experiment [3], the Kd turned out to be 0.13 nM, the dissociation rate constant (koff) is 5.06e-05 s⁻¹ and the kon is 388000 M⁻¹ s⁻¹.

B6: mouse: canine 11E12 chimera (antibody)
heavy: QVQLQQSGAELVKPGASVKLSCKASGYTFKYYDINWVRQRPEQGLEWIGWIFPGDGGTKYNETFKGKATLTTDKSSSTAYMQLSRLTSEDSAVYFCARGGTSVIRDAMDYWGQGTSVTVSSASTTAPSVFPLAPSCGSTSGSTVALACLVSGYFPEPVTVSWNSGSLTSGVHTFPSVLQSSGLYSLSSMVTVPSSRWPSETFTCNVAHPASKTKVDKPVPKRENGRVPRPPDCPKCPAPEMLGGPSVFIFPPKPKDTLLIARTPEVTCVVVDLDPEDPEVQISWFVDGKQMQTAKTQPREEQFNGTYRVVSVLPIGHQDWLKGKQFTCKVNNKALPSPIERTISKARGQAHQPSVYVLPPSREELSKNTVSLTCLIKDFFPPDIDVEWQSNGQQEPESKYRTTPPQLDEDGSYFLYSKLSVDKSRWQRGDTFICAVMHEALHNHYTQESLSHSPGK
light: DIVLTQSPASLAVSLGQRATISCRASESVDNYGISFMHWYQQKPGQPPKLLIYRASNLESGIPARFSGSGSRTDFTLTINPVETDDVATYYCQQSNKDPLTFGAGTKLELKRNDAQPAVYLFQPSPDQLHTGSASVVCLLNSFYPKDINVKWKVDGVIQDTGIQESVTEQDKDSTYSLSSTLTMSSTEYLSHELYSCEITHKSLPSTLIKSFQRSEC
B6 displayed an IC50, inhibition of feline IL-31-induced STAT3 phosphorylation, feline FCWF4 cells in experiment [1] of 1.15 µg/mL. In addition, in experiment [2], the equilibrium dissociation constant (Kd) was found to be 0.000826 nM, the koff is 6.55e-07 s⁻¹ and the on-rate constant (kon) turned out to be 793000 M⁻¹ s⁻¹. Moreover, in experiment [3], the equilibrium dissociation constant (Kd) was determined as 0.248 nM, the dissociation rate constant (koff) came to 0.000108 s⁻¹ and the kon amounted to 437000 M⁻¹ s⁻¹.

B7: ZIL9 (antibody, V domains shown)
VH: EVQLVESGGDLVKPPGSLRLSCVASGFTFSSYDMTWVRQAPGKGLQWVADVNSGGTGTAYAVAVKGRFTISRDNAKKTLYLQMNSLRAEDTAVYYCAKLGVRDGLSVWGQGTLVTVSS
VL: SSVLTQPPSVSVSLGQTATISCSGESLNEYYTQWFQQKAGQAPVLVIYRDTERPSGIPDRFSGSSSGNTHTLTISGARAEDEADYYCESAVDTGTLVFGGGTHLAVLR
B7: the Binding (ELISA OD) in experiment [4] amounted to 1.8 OD; in experiment [5], 0.73 OD.

B8: ZTS-927 (antibody)
heavy: QVLLVQSGAEVRTPGASVKIFCKASGYSFTSYTIHWLRQAPAQGLEWMGNINPTSGYTENNQRFKDRLTLTADTSTNTAYMELSSLRSADTAMYYCARWGFKYDGEWSFDVWGAGTTVTVSSASTTAPSVFPLAPSCGTTSGATVALACLVLGYFPEPVTVSWNSGALTSGVHTFPAVLQASGLYSLSSMVTVPSSRWLSDTFTCNVAHPPSNTKVDKTVRKTDHPPGPKPCDCPKCPPPEMLGGPSIFIFPPKPKDTLSISRTPEVTCLVVDLGPDDSDVQITWFVDNTQVYTAKTSPREEQFNSTYRVVSVLPILHQDWLKGKEFKCKVNSKSLPSPIERTISKAKGQPHEPQVYVLPPAQEELSRNKVSVTCLIKSFHPPDIAVEWEITGQPEPENNYRTTPPQLDSDGTYFVYSKLSVDRSHWQRGNTYTCSVSHEALHSHHTQKSLTQSPGK
light: EIQMTQSPSSLSASPGDRVTITCRASQGISIWLSWYQQKPGNIPKVLINKASNLHIGVPSRFSGSGSGTDFTLTISSLEPEDAATYYCLQSQTYPLTFGGGTKLEIKRSDAQPSVFLFQPSLDELHTGSASIVCILNDFYPKEVNVKWKVDGVVQNKGIQESTTEQNSKDSTYSLSSTLTMSSTEYQSHEKFSCEVTHKSLASTLVKSFQRSECQRE
Consider B8, for which, in experiment [1], the IC50, inhibition of feline IL-31-induced STAT3 phosphorylation, canine DH82 cells is 1.57 µg/mL and the IC50, inhibition of feline IL-31-induced STAT3 phosphorylation, feline FCWF4 cells amounted to 5.26 µg/mL. In experiment [3], the dissociation constant (Kd) is 0.614 nM, the dissociation rate constant (koff) amounted to 2.3e-05 s⁻¹ and the association rate constant (kon) turned out to be 37400 M⁻¹ s⁻¹.
